Data taken from patent US20160304622A1 (GENEFRONTIER, published 2016).

Tests used:
Experiment in all cases: immunoblotting after reducing SDS-PAGE
[1] = molecular target: T1, recombinant human ADAMTS1 (R&D Systems) (human, UniProt Q9UHI8 253-967, limits assumed)
T1 sequence (looked up): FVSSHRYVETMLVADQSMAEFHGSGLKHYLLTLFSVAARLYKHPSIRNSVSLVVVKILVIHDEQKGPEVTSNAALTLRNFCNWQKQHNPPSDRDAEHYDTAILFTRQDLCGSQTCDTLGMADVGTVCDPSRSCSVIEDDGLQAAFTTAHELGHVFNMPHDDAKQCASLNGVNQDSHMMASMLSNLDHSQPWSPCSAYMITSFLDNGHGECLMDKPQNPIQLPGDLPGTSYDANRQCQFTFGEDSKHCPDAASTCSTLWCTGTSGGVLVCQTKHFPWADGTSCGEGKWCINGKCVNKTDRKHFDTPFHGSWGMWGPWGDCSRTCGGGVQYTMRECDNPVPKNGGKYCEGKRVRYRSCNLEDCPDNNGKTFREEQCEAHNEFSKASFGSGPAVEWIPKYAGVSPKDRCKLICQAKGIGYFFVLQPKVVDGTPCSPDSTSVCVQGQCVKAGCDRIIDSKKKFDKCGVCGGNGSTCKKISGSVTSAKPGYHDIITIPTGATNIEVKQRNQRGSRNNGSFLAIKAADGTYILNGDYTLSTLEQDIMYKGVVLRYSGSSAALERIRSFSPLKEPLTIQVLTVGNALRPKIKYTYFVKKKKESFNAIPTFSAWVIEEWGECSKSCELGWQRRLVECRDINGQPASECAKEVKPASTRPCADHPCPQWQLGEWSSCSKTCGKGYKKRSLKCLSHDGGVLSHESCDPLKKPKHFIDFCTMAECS
Text: (§1) Recombinant proteins of human ADAMTS1 (R&D Systems), ADAMTS4, ADAMTS5 (R&D Systems), ADAMTS15 (R&D Systems), ADAM10 (R&D Systems), ADAM12 (Mochida Pharmaceutical Co., Ltd., Tokyo, Japan), ADAM17 (R&D Systems) and MMP-13 (Millipore, Billerica, Mass.) and purified human MMP-1, MMP-2, MMP-3 and MMP-9 (Daiichi Fine Chemical, Co., Ltd., Toyama, Japan) were subjected to sodium dodecyl sulfate-polyacrylamide gel electrophoresis (SDS-PAGE) under reducing conditions, and the samples resolved on the gels were transferred onto polyvinylidene difluoride (PVDF) membranes. […] After washing with phosphate buffered saline containing 0.1% Tween 20, the membranes were reacted with horseradish peroxidase-conjugated secondary antibody against human IgG (Invitrogen, Carlsbad, Calif.) for 1 h at room temperature. A chemiluminescence reagent (Pierce ECL western blotting substrate; Thermo Fisher Scientific, Waltham, Mass.) was used to make the labeled protein bands visible. All the samples were also examined on silver-stained gels, which were prepared by silver stain kit (Cosmo Bio Co., Ltd, […].).

[2] = molecular target: T2, recombinant human ADAM10 (R&D Systems) (human, UniProt O14672 214-672, limits assumed)
T2 sequence (looked up): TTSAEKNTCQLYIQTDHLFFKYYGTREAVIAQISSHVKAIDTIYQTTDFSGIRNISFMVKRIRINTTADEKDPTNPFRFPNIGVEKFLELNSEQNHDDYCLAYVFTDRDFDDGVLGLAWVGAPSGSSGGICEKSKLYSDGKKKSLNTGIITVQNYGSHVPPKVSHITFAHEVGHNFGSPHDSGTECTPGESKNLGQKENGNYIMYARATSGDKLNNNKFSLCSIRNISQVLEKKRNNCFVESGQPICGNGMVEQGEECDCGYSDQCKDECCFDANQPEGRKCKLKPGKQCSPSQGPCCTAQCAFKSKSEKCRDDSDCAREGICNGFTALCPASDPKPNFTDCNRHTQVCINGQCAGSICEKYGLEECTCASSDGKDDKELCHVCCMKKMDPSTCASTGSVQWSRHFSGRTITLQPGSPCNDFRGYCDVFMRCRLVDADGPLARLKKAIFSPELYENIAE
Text: as §1

[3] = molecular target: T3, recombinant human ADAM12 (Mochida Pharmaceutical Co., Ltd.) (human, UniProt O43184 208-708, limits assumed)
T3 sequence (looked up): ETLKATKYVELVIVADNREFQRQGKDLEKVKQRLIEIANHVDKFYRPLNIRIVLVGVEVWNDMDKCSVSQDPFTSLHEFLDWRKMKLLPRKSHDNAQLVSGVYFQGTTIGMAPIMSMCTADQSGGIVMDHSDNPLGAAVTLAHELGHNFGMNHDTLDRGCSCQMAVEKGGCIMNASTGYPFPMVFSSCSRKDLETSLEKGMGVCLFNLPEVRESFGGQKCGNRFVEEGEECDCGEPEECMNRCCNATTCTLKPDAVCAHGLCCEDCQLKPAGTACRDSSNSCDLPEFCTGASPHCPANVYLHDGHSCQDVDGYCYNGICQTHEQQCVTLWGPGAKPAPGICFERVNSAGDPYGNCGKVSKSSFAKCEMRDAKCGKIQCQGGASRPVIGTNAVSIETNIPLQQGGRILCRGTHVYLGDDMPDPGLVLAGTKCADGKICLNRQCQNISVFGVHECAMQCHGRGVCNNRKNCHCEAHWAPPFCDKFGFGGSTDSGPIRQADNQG
Text: as §1

[4] = molecular target: purified human MMP-3 (Daiichi Fine Chemical) (human, UniProt P08254 18-477, limits assumed)
Chain of purified human MMP-3 (Daiichi Fine Chemical) (P08254 18-477 limits assumed): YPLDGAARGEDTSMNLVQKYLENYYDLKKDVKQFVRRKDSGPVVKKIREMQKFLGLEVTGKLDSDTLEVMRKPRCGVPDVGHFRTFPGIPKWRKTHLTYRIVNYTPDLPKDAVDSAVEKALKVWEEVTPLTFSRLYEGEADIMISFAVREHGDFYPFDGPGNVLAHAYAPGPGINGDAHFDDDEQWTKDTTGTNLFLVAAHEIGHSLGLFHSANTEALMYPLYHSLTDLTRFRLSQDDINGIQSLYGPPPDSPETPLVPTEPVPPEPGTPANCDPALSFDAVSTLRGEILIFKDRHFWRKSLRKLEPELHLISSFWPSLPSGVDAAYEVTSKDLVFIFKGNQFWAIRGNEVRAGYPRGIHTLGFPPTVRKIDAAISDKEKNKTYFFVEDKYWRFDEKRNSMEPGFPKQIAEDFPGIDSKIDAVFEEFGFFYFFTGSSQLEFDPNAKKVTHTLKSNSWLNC
Text: as §1

Measured: binding result

B1: Fab of clone 237-53 (Fab, V domains shown)
VH: QVQLVQSGAEVKKPGSSVKVSCKASGGTFSSFAISWVRQAPGQGLEWMGGIFPIFGQANYAQKFQGRVTITADESTSTAYMELSSLRSEDTAVYYCARFSDWWEWQMDYWGQGTLVTVSS
VL: DIVMTQSPDSLAVSLGERATINCRSSQSILYSSNNNYLAWYQQKPGQPPKLLIHTASARESGVPDRFSGSGSGTDFTLTISSLQAEDVAVYYCQQYYSVSITFGQGTKVEIKR
no binding (tested: 5 µg/ml): all assays above
